Test results as given in the nanobody polyreactivity screen of Harvey et al. (2022).

Test: yeast display, Sf9 membrane polyspecificity reagent, FACS + sequencing; frameworks hold sequencing errors
Procedure, shortened: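 Nanobodies came from a synthetic yeast display library in Saccharomyces cerevisiae BJ5465, induced with galactose for 36–48 hours and stained for 1 hour at 4 °C with 10% biotinylated, detergent-solubilized Sf9 membrane reagent. Cells were enriched on streptavidin microbeads and then FACS-sorted, with low and high (top ~1%) gates set on anti-HA fluorescence for expression and streptavidin fluorescence for reagent binding. Each polyreactivity label reflects the gate a clone came from. Genes were amplified by colony PCR, sequenced by MiSeq 2 × 250 and filtered by CDR length.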

Row | Sequence | polyreactivity (PSR sort gate)
1 | QVQLVDSGGGLVQAGGSLRLSCAAYGSNLYYAMGWYIQAPGKERELVATITRGGSTYYADSVKGRFTISRDNAKNTVYLQMNSLKPEDTAVYYCAARRAVRVGYYWHDISSYDYWGQGTQVTVSS | low polyreactivity
2 | QVQLVESGGGLVQAGGSLRLSCAASGSTFYRYAMGWYRQAPGKERELVAAISSSGGRTYYADSVKGRFTISRDNAKKTVYLQMNSLKPEDTAVYYCAAKNAAYARYYYWGQGTQVTVSS | high polyreactivity
3 | QVQLVESGGGLVQAGGSLRLSCAASASIFDGYAMGWYRQAPGKERELVAAISKGGTRTYYADSVKGRFTISRDNAKNTVYLQMNSLKPEDSSVYYCNAYYRREPDDGDYDYWGQGTQVTVSS | high polyreactivity
4 | QVQLVESGGGLVQAGGSLRLSCAASGSIFGLYAMGWYRQAPGKEREFVASITYSGGSTYYADSVKGRFTISRDNAKNTVYLQMTSLKPEDTAVYYCAAESYWGYDYWGQGTQVTVSS | high polyreactivity
5 | QVQLVESGGGLVQAGGSLRLSCAASGFIFGRYAMGWYRQAPGKERELVAAITSGGRTYYADSVKGRFTISRDNAKNTVYLQMNSLKPEDTAVYYCAKRVGRYWTAGYYWGQGTQVTVSS | high polyreactivity
6 | QGQLVESGGGLVQAGGSLRISCGASGYIFGDKAMGWYRPEPGKARELVAAITQTGANTYYADSVMGRFTISRDNAKNTVYLQMNSLKPEDSAVYYCNKVSVVYSRSKGFYYTYLKYEFWGQGTQVTVSS | low polyreactivity
7 | QVQLVESVGGLVQAGGSLRLSCAASGLNFSYYAMGWYRQAPGKERELVAAIDWISGSTYYADSVKGRFTISRDNAKNTVYLQMNSLKPEDTAVYYCAAYGSFWYAGFGYWGQGTQVTVSS | low polyreactivity
8 | QVQLVESGGGLVQAGGSLRLSCAASGIPRNTMGWYRQAPGKERELVASISTSGGSTYYADSVKGRFTISRDNAKNTVYLPMNSLKPEDTAVYYCAKKGYASRYFIYDYWGQGTQVTVSS | low polyreactivity
9 | QVQLVESGGGLVQAGGSLRLSCAASGSIFLRYAMGWYRQAPGKERELVASITSGGSRYYADSVKGRFTISRDNAKNTVYFQMNSLKPEDTAVYYCNALPYRYRRYDYWGQGTQVTVSS | low polyreactivity
10 | QVQLQESGGGLVQASGSIFHEPNMGWHRQAPGKERELVATISDGAITNYADSVKGRFTISRDNAKNTVYLQMNSLKPEDTAVYYCAVVVHLYTDLRYWGQDTQVTVSS | high polyreactivity
11 | QVQLEESGGGLVQAGGSLRLSCAASGSTFYSYVMGWYRQAPGKERELVAAISSIGGSTYYADSVKGRFTISRDNAKNTVYLQMNSLKPEDTAVYYCAAEPPGSTYEGGYWGQGTQVTVSS | low polyreactivity
12 | QVQLEESGGGLVQAGGSLRLSCAASGSTFKYYAMGWYRQAPGKERELVAAISWSGGSTYYADSVKGRFTISRDNAKNTVYLQMNRLKPEDTAVYYCNKLIYDEDEYWGQGTQVTVSS | high polyreactivity
13 | QVQLVESGGGLVQAGGSLRLSCAASGRIIAGYAMGLYRQAPGKERELVAAISSGGSTYYADSVKGRFTISRDNAKNTVYLQMNSLKPSDTAVYYCAAGGPRVYGTKFYYCGQGTQVTVSS | high polyreactivity
14 | QVQLVESGGGLVQAGGSLRLSCAASGSTFFTNVMGWYRQAPGKERELVAVIRWRGSDTYYADSVKGRFTISRDNAKNTVYLQMNSLKPEDTAVYYCNAIESFYPTTGEQGYSYDYWGQGTQVTVSS | low polyreactivity
15 | QVQLQEGGGLVQAGGSLRLSCPASGYISSRPAMGCYRQAPGKERAFVATIADGTSTYYADSVKCRFTISRDNAKNTVYLQMNSLKPEDTEVYYCAAAYNTEFYLSYWGQGTQVTVSS | high polyreactivity
16 | QVQLVESGGGLVQAGGSLRLSCAASGSIFYSNAMGWYRQAPGKERELVAAITRRGGSTYYADSVKGRFTISRDNAKNTVYLQMNSLKPEDTAVYYCNRDPDIYIGYDYWGQGTQVTVSS | high polyreactivity
17 | QVHLVESGGGLVQAGGSLRLSCAASGSNFYWNAMGWYRQAPGKESELFAAISSGGRTYYADSLKGRFTISRDNAKNTVYLQLNSLKREDTAFYYCNAAGWIFPSFSPMDYWGQGTQVTVSS | low polyreactivity
18 | QVQLVESGGGLVQAGGSLRLSCAASGLILTRYAMGWYRQAPGKERELVAAITKNGGSTYYADSVKGRFTISRDNAKNTVYLLMNSLKPEDTAVYYCNVCPRRVDRSRAASSDYDYWGQGSQVTVSS | high polyreactivity
19 | QVQLVESGGGLVQAGGSLRISCAASGRTFDPYAMGWYRQAPGKERELVASISRGGSTYADSVKGRFTISRDNAKNTVYLQMNSLKPEDTAVYYCNTSLYTEGDAMDYWGQGTQVTVSS | low polyreactivity
20 | QVQLVESGGGLVQAGGSLRLSCAASGSIYYAMGWYRQAPGKEREFVAAINSGGSTYYADSVKGRFTISRDNAKNTVYIQMNSLKPEDTAVYYCAKPTYRFYWGDFDYWGQGTQVTVSA | low polyreactivity
21 | QVQLVESGGGLVQAGGSLRLSCAASGSTFDTYAMGWYRQAPGKERELVAAISSGGSTNYADSVKGRFTISRDNAKNTVYLQMNSLKPEDTAVYYCADSYKSVFPVYGTLDEYWGQGTQVTVSS | low polyreactivity
22 | QVQLVESGGGLVQAGGSLRLSCAASGRIFAHNAMGWYRQAPGKERELGASINSGGSTTYADSVKGRFTISRDNAKNTVYLQMNSLKPEDTAVYDCAKRDKYGKYDYWGQGTQVTVSS | low polyreactivity

Row | Sequence | polyreactivity (PSR sort gate)
23 | QDQLEESGGGLDQAGCSLRLSCAASGFTFNYYTMGWYRQAPVKERELVAVITGGGGSTYYADSVKGRFTISRDNAKNTVYLQMNSLKPEDTAVYYCAAYWGGWSFRYLYDYWGQGTQVTGSS | high polyreactivity
24 | QVQLVESGGGLVQAGGSLRLSCAASGFTFFIYAMGWYSQAPGKEREFVAAITGSGGSTYYADSVKGRFTISRDNAKNTVYLQMNSLKPEDTAVYYCNTAGYDYYSTQAYDYWGQGTQVTVSS | high polyreactivity
25 | QVQLVESGGGLVQAGGSLRLSCAASGNILIGNVMGWYRPAPGKERELVAAITSGGDTYYADSVKGRFTITRDNAKNTVYLQMNSLKPEDTAVYYCAADRPGQPKYEYWGQGTQVTVSS | low polyreactivity
26 | QVQLVESGGGLVQAGGSLRLSCAASGRTFRSYAMGWYRQAPGKERELVAAITRTGSTYYADSVKGRFTISRDNAKNTVYLQMNSLKPEDTAVYYCAARFVYGYDYWGQGTEVTVSS | high polyreactivity
27 | QVQLVESGGGLVQAGGSLRLSCAASGSIFQYNAMGWYRQAPGKEREFVAAISSRGGITYYADSVKGRFTISRDNAKNTVYLQMNSLKPEDTAVYYCAAEAYYSEVRWYEYWGQGTQVTVSS | high polyreactivity
28 | QVQLVESGGGLVQAGGSLRLSCAASGFTFPSYAMGWYRQAPGKERELVAVISRRGGSTYYADSVKGRFTISRDNAKNTVYLQMNSLKPEDTAVYYCNAPYYVFITFDYWGQGTQVTVSS | high polyreactivity
29 | QVQLEESGGGLVQAGGSLRLSCAASGSTFLRYAIGWYRQAPGKEMELVAAITASGGSTFYADSVKGRFTISRDYAKNTVYLQMNSLKPEDTPVYYCAADVSYIGKYSHDLWIYGYYYWGQGTQVTVSS | low polyreactivity
30 | QVQLVESGGGLVQAGGSLRLSCAASGRTFTTYAMGWYRQAPGKERELVAAISDTGGITYYADSVKGRFTISRDNAKNTVYLQMNSLKPEDTAVYYCNAESYRAPYDYWGQCTQVTVSS | low polyreactivity
31 | QVQLVESGGGLVQAGGSLRISCAASGITFNVNAMGWSRQAPGKERELVARITTSGGSTSYADSVKGRFTISRDNAKNTVYLQMNSLKPEDTAVYYCAADRARYYSEYDYWGQGTQVTVSS | low polyreactivity
32 | QVQLVESGGGLVQAGGSLRLSCAASGFTFSYYGMGWYRQAPGKERELVAAISWSGGRTYYADSVKGRFTISRDNAKNTVYLQMNSLKPEDTAVYYCAASAPRGYGYKYYYWGQGTQVTVSS | high polyreactivity
33 | QVQLVESGGGLVQAGGSLRLSCDASGGTFPYYAMGWYRQATGKERELVPDISGTDGSTYYADSVKGRFTISRDNANYTVYLQMNSLKPEDTAVYYCNADPHWWYWDYDYWGQGTQVTVSS | high polyreactivity
34 | QVQLVESGGGFVQAGGSLRLSCAASGRIFGQYAMGWYRQAPGKERELVAAISQRGGSTYYADSVKGRFTISRDNAKNTVYLQMNSLKPEDTAVYYCAAPPRLIKSYGYNYWGQGTQVTVSS | high polyreactivity
35 | QVQLVESGGGLVQAGGSLRLSCAASGRTFWYYTMGWYRQAPGKERELVASITYRGGSTYYADSVKGRFTISRDNAKNTVYLQMNSLKPEDTAVYYCNARSGNRYGPRYDYWGQGTQVTVSS | high polyreactivity
36 | QVKLVESGGGLVQAGGSLRLSCGASGSIFRWYALGWYRQAPGKERELVAAIDYSGGSTYYADSVKGRFTISRDNAKNTVYLQMNSLKPEDTAVYYCAATAFYGGFLRYDYWGQGTQVTVSS | low polyreactivity
37 | QVHLVESGGGLVQAGGSLRLSCAASGSTSRKYTMGWYRQAPGKERELVATISWSGGSTNYADSVKGRFTISRDNAKNTVYLQMNSLKPEETAVYYCKAYVSPRYRGSRYYYWGQGTQVTVSS | high polyreactivity
38 | QVQLVESGGGLVQAGCSLRLSSPASGRIFWANVMGWYRQAPGKERELVAAISYSGTGTYYADSVKGRFTISPDYAKNTVYLQMNSLKPEDTAFYYFAKAPYIYYWGQGTHVTVSS | high polyreactivity
39 | QVQLVESGGGLVQAGGSLRLSCAASGGTFLFYGMGWYRQAPGNERELVAVITWSGGSTYYADSVKGRFTISRDTAKNTVYLHMNSLKPVDTAVYYCAADGYFYFDYPWMNYWGQGTQVTVSS | low polyreactivity
40 | QVQLVESGGGLVQAGGSLRLSCAASGSTFDNYAMGWYRQAPGKERELVAVITQSGGITFYADSVKGRFTISRDNAKNTVYLQMNSLKPEDTAVYYCNVELDRSWYYYWGQGTQVTVSS | low polyreactivity
41 | QVQLVESGGGLVQAGGSIRLSCAASGRIFWGNGMGWYRQAPGKEREFVAAISKSGGSTYYPDSVKGRFTISRDNAKNTVYLQMNSLKPEDTAVYYCAARAPYSYSGYGYWGQGTQVTVSS | high polyreactivity
42 | QVQLVESGGGLVQAGGSLRLSCAASGFIFRWNAMGWYRQAPGKVRELVAAISNSDGSTYYADSVKGRFTISRDNAKNTVYVQMNSLKPEDTAVYYCYKLYRGGWYDYWGQGTQVTVSS | low polyreactivity
43 | QVQLVESGGGIVQAGGSLRVSFAASGLIFYRYAMGWYRQAPGKERELVAAISSAGSTYYADSVKGRFPISRDNAKNTVYLQMNSLKPEDTAVYYCAKKKLLSVPPRGYVYVYYWGQGTQVTVSS | high polyreactivity
